According to US20190002404:

Test system: purified, Flag-tagged recombinant PGAM1 (rPGAM1)

Substance	in vitro kinase assay (Y26 phosphorylation)	in vitro kinase assay (tyrosine phosphorylation)
active, recombinant FGFR1 (rFGFR1)	FGFR1 (FIG. 13B), JAK2 (FIG. 13C) and FLT3 (data not shown) directly phosphorylated PGAM1 at Y26 in vitro	active, recombinant FGFR1 (rFGFR1) directly phosphorylated purified, Flag-tagged recombinant PGAM1 (rPGAM1) at tyrosine residues
active, recombinant JAK2 (rJAK2)	FGFR1 (FIG. 13B), JAK2 (FIG. 13C) and FLT3 (data not shown) directly phosphorylated PGAM1 at Y26 in vitro	
FLT3	FGFR1 (FIG. 13B), JAK2 (FIG. 13C) and FLT3 (data not shown) directly phosphorylated PGAM1 at Y26 in vitro	
